In US20170044259A1 (CYTOMX THERAPEUTICS, published 2017):
Positions count from the first letter of the chain named. Numbers in names are those of the source. Blank lines part the entries; values can stand above or below the binder they belong to.

What was measured:
[1] = target: T1, human PD-1-Fc (R and D systems, Minneapolis, Minn.) (human, UniProt Q15116 25-167); assay: plate ELISA on human PD-1-Fc; reference A1.4
T1 construct: bought; also called hPD-1-Fc; hPD-1; not shown: Fc part of the bought fusion

[2] = target: T1, human PD-1-Fc (R and D systems, …); assay: plate ELISA on human PD-1-Fc

T1 sequence (Q15116 25-167 limits assumed): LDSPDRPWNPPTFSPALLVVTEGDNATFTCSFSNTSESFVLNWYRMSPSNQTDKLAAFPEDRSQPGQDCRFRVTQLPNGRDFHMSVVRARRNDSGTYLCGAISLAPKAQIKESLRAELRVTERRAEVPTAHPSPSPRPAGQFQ

ME (masking efficiency, Kd of the activatable antibody divided by Kd of the parental antibody) [1]: 25
B1: PD-1 1.4 PD001 2001 (antibody, human IgG4 S228P, kappa)
heavy: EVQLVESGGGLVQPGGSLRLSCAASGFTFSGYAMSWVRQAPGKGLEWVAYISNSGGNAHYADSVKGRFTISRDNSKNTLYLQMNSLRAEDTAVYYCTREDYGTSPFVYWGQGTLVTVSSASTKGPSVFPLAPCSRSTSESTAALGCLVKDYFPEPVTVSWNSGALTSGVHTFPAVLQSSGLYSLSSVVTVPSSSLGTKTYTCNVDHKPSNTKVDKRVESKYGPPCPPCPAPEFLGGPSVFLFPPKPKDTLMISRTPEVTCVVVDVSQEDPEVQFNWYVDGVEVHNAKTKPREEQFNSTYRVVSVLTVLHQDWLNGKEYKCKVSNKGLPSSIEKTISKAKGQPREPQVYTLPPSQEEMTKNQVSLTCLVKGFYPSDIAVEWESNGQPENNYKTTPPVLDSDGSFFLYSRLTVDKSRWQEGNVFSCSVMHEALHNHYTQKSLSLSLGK
light: QGQSGQGAMSGCSWSAFCPYLAGGGSSGGSISSGLLSGRSDNHGGGSDIQLTQSPSSLSASVGDRVTITCRASESVDSYGISFMNWFQQKPGKAPKLLIYAASNQGSGVPSRFSGSGSGTDFTLTISSMQPEDFATYYCQQSKDVPWTFGQGTKLEIKRTVAAPSVFIFPPSDEQLKSGTASVVCLLNNFYPREAKVQWKVDNALQSGNSQESVTEQDSKDSTYSLSSTLTLSKADYEKHKVYACEVTHQGLSSPVTKSFNRGEC
notes: hIgG4 S228P/hK; also called PD01 (A1.4)

binding result [2]: binds
B4: Bb2 (antibody, human IgG4 S228P, kappa, V domains shown)
VH: QVQLVQSGAEVKKPGASVKMSCKASGYTFTDYYMDWVRQAPGQGLEWIGYIYPKNGGSSYAQKFQGRATLTVDKSTSTAYMELSSLRSEDTAVYYCARKVVATDYWGQGTLLTVSS
VL: DIQMTQSPSSLSASVGDRVTMTCKSSQSLLYSSNQKNYLAWYQQKPGKAPKLLIFWASIRESGVPSRFSGSGSGTDFTLTISSVQPEDFATYYCQQSDSYPWTFGQGTKLEIKR
notes: humanized, full length hIgG4/hKappa

ME (masking efficiency, Kd of the activatable antibody divided by Kd of the parental antibody) [1]: 5
B8: PD-1 1.4 PD003 2001 (antibody, human IgG4 S228P, kappa)
heavy: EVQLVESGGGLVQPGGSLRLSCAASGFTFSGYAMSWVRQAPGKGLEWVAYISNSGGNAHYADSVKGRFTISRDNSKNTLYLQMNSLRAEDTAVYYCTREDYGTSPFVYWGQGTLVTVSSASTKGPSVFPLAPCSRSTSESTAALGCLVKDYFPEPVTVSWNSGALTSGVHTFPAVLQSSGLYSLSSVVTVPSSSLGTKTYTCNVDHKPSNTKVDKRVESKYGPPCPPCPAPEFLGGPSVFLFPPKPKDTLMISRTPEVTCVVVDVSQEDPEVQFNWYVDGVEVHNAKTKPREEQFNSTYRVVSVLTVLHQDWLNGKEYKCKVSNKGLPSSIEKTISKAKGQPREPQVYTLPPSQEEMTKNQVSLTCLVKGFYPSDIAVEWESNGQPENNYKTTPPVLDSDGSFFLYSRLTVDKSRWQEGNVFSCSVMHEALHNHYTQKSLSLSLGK
light: QGQSGQGLVCPLYALSSGVCMGGGGSSGGSISSGLLSGRSDNHGGGSDIQLTQSPSSLSASVGDRVTITCRASESVDSYGISFMNWFQQKPGKAPKLLIYAASNQGSGVPSRFSGSGSGTDFTLTISSMQPEDFATYYCQQSKDVPWTFGQGTKLEIKRTVAAPSVFIFPPSDEQLKSGTASVVCLLNNFYPREAKVQWKVDNALQSGNSQESVTEQDSKDSTYSLSSTLTLSKADYEKHKVYACEVTHQGLSSPVTKSFNRGEC
notes: also called PD03 (A1.4)

ME (masking efficiency, Kd of the activatable antibody divided by Kd of the parental antibody) [1]: 13
B10: PD-1 1.4 PD010 2001 (antibody, human IgG4 S228P, kappa)
heavy: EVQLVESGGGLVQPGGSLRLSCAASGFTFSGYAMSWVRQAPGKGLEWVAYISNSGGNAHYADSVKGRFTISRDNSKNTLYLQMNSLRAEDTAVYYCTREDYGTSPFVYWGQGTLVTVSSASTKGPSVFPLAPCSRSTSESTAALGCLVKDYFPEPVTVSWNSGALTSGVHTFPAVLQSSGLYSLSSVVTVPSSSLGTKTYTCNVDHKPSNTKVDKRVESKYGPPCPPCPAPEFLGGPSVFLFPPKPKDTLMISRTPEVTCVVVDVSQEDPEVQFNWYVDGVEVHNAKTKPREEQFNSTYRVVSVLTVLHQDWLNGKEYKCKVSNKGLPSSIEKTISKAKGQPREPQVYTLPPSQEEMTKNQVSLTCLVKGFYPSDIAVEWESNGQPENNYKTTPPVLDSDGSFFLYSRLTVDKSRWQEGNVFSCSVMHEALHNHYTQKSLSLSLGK
light: B8 light with L8G, V9L, P11S, L12W, A14L, L15S, V19L, M21V, G22D
notes: also called PD-10 (A1.4); PD10 (A1.4)

The next lines start with the binder.

B2: D4 (antibody, human IgG4 S228P, kappa, V domains shown)
VH: EVQLVESGGGLVQPGGSLRLSCAHSGFSFSSYDMSWVRQAPGKGLEWVATISGGGRYTYYADSVKGRFTISRDNSKNTLYLQMNSLRAEDTAVYYCASNYYGFDYWGQGTLLTVSS
VL: DIQMTQSPSSLSASVGDRVTITCKASQDVGTAVAWYQQKPGKAPKLLIYWASTRHTGVPSRFSGSGSGTDFTLTISSVQPEDFATYYCQQYSSYPWTFGQGTKLEIKR
notes: as for B4
binding result [2]: binds

B3: PD-1 1.4 PD002 2001 (antibody, human IgG4 S228P, kappa)
heavy: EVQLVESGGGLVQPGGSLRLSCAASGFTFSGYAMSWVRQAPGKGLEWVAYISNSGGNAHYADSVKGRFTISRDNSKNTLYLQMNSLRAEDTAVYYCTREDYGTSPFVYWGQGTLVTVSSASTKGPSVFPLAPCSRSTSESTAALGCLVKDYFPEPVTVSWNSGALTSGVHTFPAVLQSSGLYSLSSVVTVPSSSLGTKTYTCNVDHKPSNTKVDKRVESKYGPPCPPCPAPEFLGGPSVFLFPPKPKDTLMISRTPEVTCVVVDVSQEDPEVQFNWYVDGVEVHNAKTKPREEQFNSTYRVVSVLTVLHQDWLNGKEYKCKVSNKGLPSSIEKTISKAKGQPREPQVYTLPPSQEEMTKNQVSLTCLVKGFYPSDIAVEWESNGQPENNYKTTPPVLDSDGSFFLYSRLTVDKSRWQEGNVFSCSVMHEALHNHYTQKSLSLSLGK
light: QGQSGQGDVNCAIWYSVCTTVPGGGSSGGSISSGLLSGRSDNHGGGSDIQLTQSPSSLSASVGDRVTITCRASESVDSYGISFMNWFQQKPGKAPKLLIYAASNQGSGVPSRFSGSGSGTDFTLTISSMQPEDFATYYCQQSKDVPWTFGQGTKLEIKRTVAAPSVFIFPPSDEQLKSGTASVVCLLNNFYPREAKVQWKVDNALQSGNSQESVTEQDSKDSTYSLSSTLTLSKADYEKHKVYACEVTHQGLSSPVTKSFNRGEC
notes: also called PD02 (A1.4)
ME (masking efficiency, Kd of the activatable antibody divided by Kd of the parental antibody) [1]: 18

B5: A1.4 (antibody, human IgG4 S228P, kappa)
heavy: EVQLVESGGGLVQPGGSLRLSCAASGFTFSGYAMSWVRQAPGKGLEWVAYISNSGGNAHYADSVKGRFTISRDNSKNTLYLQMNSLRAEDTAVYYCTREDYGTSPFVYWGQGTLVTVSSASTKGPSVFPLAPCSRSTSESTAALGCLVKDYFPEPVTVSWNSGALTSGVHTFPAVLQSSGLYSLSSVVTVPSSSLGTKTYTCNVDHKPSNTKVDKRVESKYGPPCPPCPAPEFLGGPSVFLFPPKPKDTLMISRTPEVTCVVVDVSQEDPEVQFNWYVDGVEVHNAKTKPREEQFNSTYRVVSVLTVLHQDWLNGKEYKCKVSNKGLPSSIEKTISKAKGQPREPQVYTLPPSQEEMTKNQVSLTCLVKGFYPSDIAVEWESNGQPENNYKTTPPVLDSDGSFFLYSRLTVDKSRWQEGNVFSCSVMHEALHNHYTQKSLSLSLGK
light: DIQLTQSPSSLSASVGDRVTITCRASESVDSYGISFMNWFQQKPGKAPKLLIYAASNQGSGVPSRFSGSGSGTDFTLTISSMQPEDFATYYCQQSKDVPWTFGQGTKLEIKRTVAAPSVFIFPPSDEQLKSGTASVVCLLNNFYPREAKVQWKVDNALQSGNSQESVTEQDSKDSTYSLSSTLTLSKADYEKHKVYACEVTHQGLSSPVTKSFNRGEC
notes: humanized, full length hIgG4/hKappa; also called anti-PD-1 A1.4; DyLight-650 A1.4
binding result [2]: binds

B6: A1.6 (antibody, human IgG4 S228P, kappa, V domains shown)
VH: EVQLVESGGGLVQPGGSLRLSCAASGFTFSGYAMSWVRQAPGKGLEWVAYISNSGGNAHYADSVKGRFTISRDNSKNTLYLQMNSLRAEDTAVYYCTREDYGTSPFVYWGQGTLVTVSS
VL: DIQLTQSPSSLSASVGDRVTITCRASESVDNYGISFMNWFQQKPGKAPKLLIYAASDQGSGVPSRFSGSGSGTDFTLTISSMQPEDFATYYCQQSKDVPWTFGQGTKLEIKR
notes: as for B4
binding result [2]: binds

B7: C1.1 (antibody, human IgG4 S228P, kappa, V domains shown)
VH: B6 VH with G31N, S54G, N57D, A58T, V64L, I70V, T97A, D100N
VL: B6 VL with A13V, V19A, D57N
notes: as for B4
binding result [2]: binds

B9: PD-1 1.4 PD008 2001 (antibody, human IgG4 S228P, kappa)
heavy: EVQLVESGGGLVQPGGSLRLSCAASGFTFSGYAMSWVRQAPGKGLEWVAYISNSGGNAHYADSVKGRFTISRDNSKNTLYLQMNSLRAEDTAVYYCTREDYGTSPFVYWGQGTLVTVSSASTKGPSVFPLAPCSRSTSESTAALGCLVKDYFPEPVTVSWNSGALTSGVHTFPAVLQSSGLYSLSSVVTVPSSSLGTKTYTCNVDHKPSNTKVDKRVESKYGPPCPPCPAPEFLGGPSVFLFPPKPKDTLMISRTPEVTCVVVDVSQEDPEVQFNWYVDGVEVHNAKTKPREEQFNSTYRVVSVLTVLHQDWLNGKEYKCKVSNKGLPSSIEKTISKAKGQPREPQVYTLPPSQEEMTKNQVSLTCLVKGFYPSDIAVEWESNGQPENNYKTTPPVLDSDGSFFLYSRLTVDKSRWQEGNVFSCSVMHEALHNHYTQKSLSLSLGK
light: B8 light with L8E, V9T, P11N, L12Q, A14E, L15R, V19L, M21F, G22A
notes: also called PD08 (A1.4)
ME (masking efficiency, Kd of the activatable antibody divided by Kd of the parental antibody) [1]: 13
